Earlier results as cited in article PMC3137898.

Target: syntrophin PDZ (Mus musculus) (UniProt Q61234)
Sequence (Q61234 78-167): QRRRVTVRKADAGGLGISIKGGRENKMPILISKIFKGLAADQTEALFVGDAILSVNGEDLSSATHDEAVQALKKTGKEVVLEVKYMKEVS

Chain of neuronal nitric oxide synthase PDZ (P29476 14-102): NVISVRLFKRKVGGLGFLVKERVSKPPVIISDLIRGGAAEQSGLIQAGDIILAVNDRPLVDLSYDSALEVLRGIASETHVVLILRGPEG

Kd: 600 nM
Substance: neuronal nitric oxide synthase PDZ (from UniProt P29476)
